Reference: patent US20140087995A1 (published 2014)
Numbered stars: 1 amine (or outer) side, 2 acyl side, 3 side chain; on linkers, the order of the positions; unused ones are H or OH. Bridge positions count the residues as written; N and C are the ends. Side chains are listed from the residue outwards. Ends that are not written are not given here. * marks the point of attachment. C20 diacid = O=C(O)CCCCCCCCCCCCCCCCCCC(=O)*; γGlu = O=C(O)[C@H](CCC(=O)[*:2])N[*:1]; AEEA = NCCOCCOCC(=O)O

T1: human amylin receptor (amylin 3(a) receptor: human calcitonin receptor with RAMP-3) (human, UniProt P30988 25-474; O60896 24-148)
T1 construct: whole, on cells; also called hAmylin-R; hAmylinR
T1 sequence (looked up) 1: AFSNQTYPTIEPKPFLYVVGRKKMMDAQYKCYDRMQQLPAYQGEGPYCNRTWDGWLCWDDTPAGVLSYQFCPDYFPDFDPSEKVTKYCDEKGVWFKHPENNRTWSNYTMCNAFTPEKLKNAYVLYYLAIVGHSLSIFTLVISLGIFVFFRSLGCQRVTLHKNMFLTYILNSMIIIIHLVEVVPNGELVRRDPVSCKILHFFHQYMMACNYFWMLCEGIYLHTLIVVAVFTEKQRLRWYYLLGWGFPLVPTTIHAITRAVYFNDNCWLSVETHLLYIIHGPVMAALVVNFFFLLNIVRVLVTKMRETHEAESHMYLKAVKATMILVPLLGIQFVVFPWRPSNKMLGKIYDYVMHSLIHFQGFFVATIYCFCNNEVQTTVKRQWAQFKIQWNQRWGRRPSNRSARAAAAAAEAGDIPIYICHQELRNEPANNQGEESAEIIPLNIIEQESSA
T1 sequence (looked up) 2: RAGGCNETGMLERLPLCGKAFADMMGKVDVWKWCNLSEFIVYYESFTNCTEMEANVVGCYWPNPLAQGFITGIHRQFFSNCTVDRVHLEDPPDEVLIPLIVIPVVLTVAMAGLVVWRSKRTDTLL

B1: N^ε1-[2-[2-[2-[[(4S)-4-carboxy-4-(19-carboxynonadecanoylamino)butanoyl]amino]ethoxy]ethoxy]acetyl]-[Arg17,Pro21,Pro27,Pro34,His35]-h-amylin (peptide)
peptide: K([AEEA-γGlu-C20 diacid])CNTATCATQRLANFLRHSSPNFGAIPSSTNVGPHTY-NH2
modifications: disulfide 2-7; N-terminus assumed
SMILES: CC[C@H](C)[C@H](NC(=O)[C@H](C)NC(=O)CNC(=O)[C@H](Cc1ccccc1)NC(=O)[C@H](CC(N)=O)NC(=O)[C@@H]1CCCN1C(=O)[C@H](CO)NC(=O)[C@H](CO)NC(=O)[C@H](Cc1c[nH]cn1)NC(=O)[C@H](CCCNC(=N)N)NC(=O)[C@H](CC(C)C)NC(=O)[C@H](Cc1ccccc1)NC(=O)[C@H](CC(N)=O)NC(=O)[C@H](C)NC(=O)[C@H](CC(C)C)NC(=O)[C@H](CCCNC(=N)N)NC(=O)[C@H](CCC(N)=O)NC(=O)[C@@H](NC(=O)[C@H](C)NC(=O)[C@@H]1CSSC[C@H](NC(=O)[C@@H](N)CCCCNC(=O)COCCOCCNC(=O)CC[C@H](NC(=O)CCCCCCCCCCCCCCCCCCC(=O)O)C(=O)O)C(=O)N[C@@H](CC(N)=O)C(=O)N[C@@H]([C@@H](C)O)C(=O)N[C@@H](C)C(=O)N[C@@H]([C@@H](C)O)C(=O)N1)[C@@H](C)O)C(=O)N1CCC[C@H]1C(=O)N[C@@H](CO)C(=O)N[C@@H](CO)C(=O)N[C@H](C(=O)N[C@@H](CC(N)=O)C(=O)N[C@H](C(=O)NCC(=O)N1CCC[C@H]1C(=O)N[C@@H](Cc1c[nH]cn1)C(=O)N[C@H](C(=O)N[C@@H](Cc1ccc(O)cc1)C(N)=O)[C@@H](C)O)C(C)C)[C@@H](C)O
notes: also called 58; compound 58
B2: N^ε1-[2-[2-[2-[[(4S)-4-carboxy-4-(19-carboxynonadecanoylamino)butanoyl]amino]ethoxy]ethoxy]acetyl]-[Arg17,Pro21,Pro27,Pro34]-h-amylin (peptide)
peptide: K([AEEA-γGlu-C20 diacid])CNTATCATQRLANFLRHSSPNFGAIPSSTNVGPNTY-NH2
modifications: disulfide 2-7; N-terminus assumed
SMILES: CC[C@H](C)[C@H](NC(=O)[C@H](C)NC(=O)CNC(=O)[C@H](Cc1ccccc1)NC(=O)[C@H](CC(N)=O)NC(=O)[C@@H]1CCCN1C(=O)[C@H](CO)NC(=O)[C@H](CO)NC(=O)[C@H](Cc1c[nH]cn1)NC(=O)[C@H](CCCNC(=N)N)NC(=O)[C@H](CC(C)C)NC(=O)[C@H](Cc1ccccc1)NC(=O)[C@H](CC(N)=O)NC(=O)[C@H](C)NC(=O)[C@H](CC(C)C)NC(=O)[C@H](CCCNC(=N)N)NC(=O)[C@H](CCC(N)=O)NC(=O)[C@@H](NC(=O)[C@H](C)NC(=O)[C@@H]1CSSC[C@H](NC(=O)[C@@H](N)CCCCNC(=O)COCCOCCNC(=O)CC[C@H](NC(=O)CCCCCCCCCCCCCCCCCCC(=O)O)C(=O)O)C(=O)N[C@@H](CC(N)=O)C(=O)N[C@@H]([C@@H](C)O)C(=O)N[C@@H](C)C(=O)N[C@@H]([C@@H](C)O)C(=O)N1)[C@@H](C)O)C(=O)N1CCC[C@H]1C(=O)N[C@@H](CO)C(=O)N[C@@H](CO)C(=O)N[C@H](C(=O)N[C@@H](CC(N)=O)C(=O)N[C@H](C(=O)NCC(=O)N1CCC[C@H]1C(=O)N[C@@H](CC(N)=O)C(=O)N[C@H](C(=O)N[C@@H](Cc1ccc(O)cc1)C(N)=O)[C@@H](C)O)C(C)C)[C@@H](C)O
notes: also called 50; compound 50
B3: N^ε1-[2-[2-[2-[[(4S)-4-carboxy-4-(19-carboxynonadecanoylamino)butanoyl]amino]ethoxy]ethoxy]acetyl]-[His14,Arg17,Pro21,Pro27,Arg34]-h-amylin (peptide)
peptide: K([AEEA-γGlu-C20 diacid])CNTATCATQRLAHFLRHSSPNFGAIPSSTNVGRNTY-NH2
modifications: disulfide 2-7; N-terminus assumed
SMILES: CC[C@H](C)[C@H](NC(=O)[C@H](C)NC(=O)CNC(=O)[C@H](Cc1ccccc1)NC(=O)[C@H](CC(N)=O)NC(=O)[C@@H]1CCCN1C(=O)[C@H](CO)NC(=O)[C@H](CO)NC(=O)[C@H](Cc1c[nH]cn1)NC(=O)[C@H](CCCNC(=N)N)NC(=O)[C@H](CC(C)C)NC(=O)[C@H](Cc1ccccc1)NC(=O)[C@H](Cc1c[nH]cn1)NC(=O)[C@H](C)NC(=O)[C@H](CC(C)C)NC(=O)[C@H](CCCNC(=N)N)NC(=O)[C@H](CCC(N)=O)NC(=O)[C@@H](NC(=O)[C@H](C)NC(=O)[C@@H]1CSSC[C@H](NC(=O)[C@@H](N)CCCCNC(=O)COCCOCCNC(=O)CC[C@H](NC(=O)CCCCCCCCCCCCCCCCCCC(=O)O)C(=O)O)C(=O)N[C@@H](CC(N)=O)C(=O)N[C@@H]([C@@H](C)O)C(=O)N[C@@H](C)C(=O)N[C@@H]([C@@H](C)O)C(=O)N1)[C@@H](C)O)C(=O)N1CCC[C@H]1C(=O)N[C@@H](CO)C(=O)N[C@@H](CO)C(=O)N[C@H](C(=O)N[C@@H](CC(N)=O)C(=O)N[C@H](C(=O)NCC(=O)N[C@@H](CCCNC(=N)N)C(=O)N[C@@H](CC(N)=O)C(=O)N[C@H](C(=O)N[C@@H](Cc1ccc(O)cc1)C(N)=O)[C@@H](C)O)C(C)C)[C@@H](C)O
notes: also called 84; compound 84
B4: N^ε1-[2-[2-[2-[[(4S)-4-carboxy-4-(19-carboxynonadecanoylamino)butanoyl]amino]ethoxy]ethoxy]acetyl]-[His14,Arg17,Pro21,Pro27,His34]-h-amylin (peptide)
peptide: K([AEEA-γGlu-C20 diacid])CNTATCATQRLAHFLRHSSPNFGAIPSSTNVGHNTY-NH2
modifications: disulfide 2-7; N-terminus assumed
SMILES: CC[C@H](C)[C@H](NC(=O)[C@H](C)NC(=O)CNC(=O)[C@H](Cc1ccccc1)NC(=O)[C@H](CC(N)=O)NC(=O)[C@@H]1CCCN1C(=O)[C@H](CO)NC(=O)[C@H](CO)NC(=O)[C@H](Cc1c[nH]cn1)NC(=O)[C@H](CCCNC(=N)N)NC(=O)[C@H](CC(C)C)NC(=O)[C@H](Cc1ccccc1)NC(=O)[C@H](Cc1c[nH]cn1)NC(=O)[C@H](C)NC(=O)[C@H](CC(C)C)NC(=O)[C@H](CCCNC(=N)N)NC(=O)[C@H](CCC(N)=O)NC(=O)[C@@H](NC(=O)[C@H](C)NC(=O)[C@@H]1CSSC[C@H](NC(=O)[C@@H](N)CCCCNC(=O)COCCOCCNC(=O)CC[C@H](NC(=O)CCCCCCCCCCCCCCCCCCC(=O)O)C(=O)O)C(=O)N[C@@H](CC(N)=O)C(=O)N[C@@H]([C@@H](C)O)C(=O)N[C@@H](C)C(=O)N[C@@H]([C@@H](C)O)C(=O)N1)[C@@H](C)O)C(=O)N1CCC[C@H]1C(=O)N[C@@H](CO)C(=O)N[C@@H](CO)C(=O)N[C@H](C(=O)N[C@@H](CC(N)=O)C(=O)N[C@H](C(=O)NCC(=O)N[C@@H](Cc1c[nH]cn1)C(=O)N[C@@H](CC(N)=O)C(=O)N[C@H](C(=O)N[C@@H](Cc1ccc(O)cc1)C(N)=O)[C@@H](C)O)C(C)C)[C@@H](C)O
notes: also called 80; compound 80
B5: N^ε1-[2-[2-[2-[[(4S)-4-carboxy-4-(19-carboxynonadecanoylamino)butanoyl]amino]ethoxy]ethoxy]acetyl]-[Gly14,Arg17,Pro21,Pro27,Pro31]-h-amylin (peptide)
peptide: K([AEEA-γGlu-C20 diacid])CNTATCATQRLAGFLRHSSPNFGAIPSSTPVGSNTY-NH2
modifications: disulfide 2-7; N-terminus assumed
SMILES: CC[C@H](C)[C@H](NC(=O)[C@H](C)NC(=O)CNC(=O)[C@H](Cc1ccccc1)NC(=O)[C@H](CC(N)=O)NC(=O)[C@@H]1CCCN1C(=O)[C@H](CO)NC(=O)[C@H](CO)NC(=O)[C@H](Cc1c[nH]cn1)NC(=O)[C@H](CCCNC(=N)N)NC(=O)[C@H](CC(C)C)NC(=O)[C@H](Cc1ccccc1)NC(=O)CNC(=O)[C@H](C)NC(=O)[C@H](CC(C)C)NC(=O)[C@H](CCCNC(=N)N)NC(=O)[C@H](CCC(N)=O)NC(=O)[C@@H](NC(=O)[C@H](C)NC(=O)[C@@H]1CSSC[C@H](NC(=O)[C@@H](N)CCCCNC(=O)COCCOCCNC(=O)CC[C@H](NC(=O)CCCCCCCCCCCCCCCCCCC(=O)O)C(=O)O)C(=O)N[C@@H](CC(N)=O)C(=O)N[C@@H]([C@@H](C)O)C(=O)N[C@@H](C)C(=O)N[C@@H]([C@@H](C)O)C(=O)N1)[C@@H](C)O)C(=O)N1CCC[C@H]1C(=O)N[C@@H](CO)C(=O)N[C@@H](CO)C(=O)N[C@H](C(=O)N1CCC[C@H]1C(=O)N[C@H](C(=O)NCC(=O)N[C@@H](CO)C(=O)N[C@@H](CC(N)=O)C(=O)N[C@H](C(=O)N[C@@H](Cc1ccc(O)cc1)C(N)=O)[C@@H](C)O)C(C)C)[C@@H](C)O
notes: also called 71; compound 71
B6: N^ε1-[2-[2-[2-[[(4S)-4-carboxy-4-(19-carboxynonadecanoylamino)butanoyl]amino]ethoxy]ethoxy]acetyl]-[His14,Arg17,Pro21,Pro27,Pro31]-h-amylin (peptide)
peptide: K([AEEA-γGlu-C20 diacid])CNTATCATQRLAHFLRHSSPNFGAIPSSTPVGSNTY-NH2
modifications: disulfide 2-7; N-terminus assumed
SMILES: CC[C@H](C)[C@H](NC(=O)[C@H](C)NC(=O)CNC(=O)[C@H](Cc1ccccc1)NC(=O)[C@H](CC(N)=O)NC(=O)[C@@H]1CCCN1C(=O)[C@H](CO)NC(=O)[C@H](CO)NC(=O)[C@H](Cc1c[nH]cn1)NC(=O)[C@H](CCCNC(=N)N)NC(=O)[C@H](CC(C)C)NC(=O)[C@H](Cc1ccccc1)NC(=O)[C@H](Cc1c[nH]cn1)NC(=O)[C@H](C)NC(=O)[C@H](CC(C)C)NC(=O)[C@H](CCCNC(=N)N)NC(=O)[C@H](CCC(N)=O)NC(=O)[C@@H](NC(=O)[C@H](C)NC(=O)[C@@H]1CSSC[C@H](NC(=O)[C@@H](N)CCCCNC(=O)COCCOCCNC(=O)CC[C@H](NC(=O)CCCCCCCCCCCCCCCCCCC(=O)O)C(=O)O)C(=O)N[C@@H](CC(N)=O)C(=O)N[C@@H]([C@@H](C)O)C(=O)N[C@@H](C)C(=O)N[C@@H]([C@@H](C)O)C(=O)N1)[C@@H](C)O)C(=O)N1CCC[C@H]1C(=O)N[C@@H](CO)C(=O)N[C@@H](CO)C(=O)N[C@H](C(=O)N1CCC[C@H]1C(=O)N[C@H](C(=O)NCC(=O)N[C@@H](CO)C(=O)N[C@@H](CC(N)=O)C(=O)N[C@H](C(=O)N[C@@H](Cc1ccc(O)cc1)C(N)=O)[C@@H](C)O)C(C)C)[C@@H](C)O
notes: also called 61; compound 61

What follows are binders tested against T1, human amylin receptor (amylin 3(a) …) (assay: SPA displacement of 125I-rat amylin, hAmylin 3(a) receptor membranes).
Method in brief: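 SPA beads + BHK amylin 3(a)/CRE-luc membranes, 35 ng/μL final; buffer 50 mM Hepes pH 7.4, 1 mM CaCl2, 5 mM MgCl₂, 0.1% OA, 0.02% Tween20. 120 min, 25° C, shaken; scintillation count. IC₅₀ by one-site binding competition fit, taken as receptor affinity.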
Binder B1 has an IC50 of 0.088 nM.
B2 showed an IC50 of 0.038 nM.
B3 showed an IC50 of 0.743 nM.
Binder B4 has an IC50 of 0.29 nM.
For B5, the IC50 was 0.048 nM.
For B6, the IC50 was 0.122 nM.
